Experimental data taken from patent publication US20220119534A1 (DRAGONFLY THERAPEUTICS, published 2022).
Where “and” joins values, the source holds several entries; their conditions need not be identical. Identical values can stand only once.

Tests used:
[1] = biological target: T1, human CLEC12A on cells (HL60, PL21, Ba/F3-hCLEC12A) (human, UniProt Q5QGZ9 1-265); assay: flow cytometry, PL21 cells
T1 construct: Endogenous on the AML lines HL60 and PL21; brought into mouse Ba/F3 cells by retroviral transduction; The cell line stands under assay; also called CLL-1
T1 sequence: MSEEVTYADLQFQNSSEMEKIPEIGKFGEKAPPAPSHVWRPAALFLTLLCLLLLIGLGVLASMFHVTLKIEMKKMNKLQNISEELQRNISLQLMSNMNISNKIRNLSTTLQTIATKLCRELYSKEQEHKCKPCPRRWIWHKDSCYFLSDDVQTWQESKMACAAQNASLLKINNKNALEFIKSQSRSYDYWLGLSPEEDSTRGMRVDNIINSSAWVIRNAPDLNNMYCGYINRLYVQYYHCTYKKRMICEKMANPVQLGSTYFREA

Human CLEC12A-His [2] = biological target: T2, Human CLEC12A-His (human, UniProt Q5QGZ9 65-265); assay: SPR; sample after pH 8.0, 40 C, 2 weeks
T2 construct: Recombinant soluble protein made in house; also called hCLEC12A-His; hCLEC12A; not shown: His tag
T2 sequence: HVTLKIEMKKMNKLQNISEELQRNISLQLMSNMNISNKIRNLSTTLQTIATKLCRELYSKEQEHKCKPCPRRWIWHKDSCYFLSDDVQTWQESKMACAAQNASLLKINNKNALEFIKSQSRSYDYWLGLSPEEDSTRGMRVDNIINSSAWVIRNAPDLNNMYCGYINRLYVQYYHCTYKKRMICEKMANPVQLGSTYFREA

mFc-hNKG2D [3] = biological target: T3, mFc-hNKG2D (human, UniProt P26718 73-216); assay: SPR; sample after pH 8.0, 40 C, 2 weeks
T3 construct: extracellular domain; Recombinant mFc-tagged NKG2D dimer, made in house; also called human NKG2D; not shown: mouse Fc tag
T3 sequence (looked up): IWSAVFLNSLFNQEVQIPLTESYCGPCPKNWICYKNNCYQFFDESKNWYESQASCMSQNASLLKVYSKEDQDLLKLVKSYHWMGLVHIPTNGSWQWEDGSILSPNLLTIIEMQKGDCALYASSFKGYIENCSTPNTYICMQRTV

Human CD16a V158 [4] = biological target: T4, Human CD16a V158 (human, UniProt P08637 17-208, biotinylated); assay: SPR; sample after pH 8.0, 40 C, 2 weeks
T4 construct: Bought recombinant receptor; also called hCD16a (V158); hFcγRIIIa V158

Human CLEC12A-His [5] = biological target: T2, Human CLEC12A-His; assay: SPR; sample after 4 weeks at 40 C in HST pH 6.0
mFc-hNKG2D [6] = biological target: T3, mFc-hNKG2D; assay: SPR; sample after 4 weeks at 40 C in HST pH 6.0
Human CD16a V158 [7] = biological target: T4, Human CD16a V158; assay: SPR; sample after 4 weeks at 40 C in HST pH 6.0
Human CLEC12A-His [8] = biological target: T2, Human CLEC12A-His; assay: SPR, 37 C, AB0192 captured, hCLEC12A-His analyte

T4 sequence (P08637 17-208 F176V limits assumed): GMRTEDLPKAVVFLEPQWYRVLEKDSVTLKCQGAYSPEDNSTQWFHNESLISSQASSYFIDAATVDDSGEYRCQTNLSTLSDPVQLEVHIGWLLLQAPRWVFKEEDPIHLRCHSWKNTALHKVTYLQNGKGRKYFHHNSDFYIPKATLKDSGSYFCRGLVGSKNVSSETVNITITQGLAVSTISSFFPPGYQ

B1: AB0192 TriNKET (other)
chain: EVQLVESGGGVVQPGGSLRLSCAASGFTFNAFGMHWVRQAPGKCLEWVAFISSGSTSIYYANTVKGRFTISRDNSKNTLYLQMNSLRAEDTAVYYCARDGYPTGGAMDYWGQGTSVTVSSGGGGSGGGGSGGGGSGGGGSDIQMTQSPSSLSASVGDRVTITCKASQDIYNYLSWFQQKPGKAPKPLIYRANILVSGVPSRFSGSGSGQDYTFTISSLQPEDIATYYCLQFDAFPFTFGCGTKLEIKGSDKTHTCPPCPAPELLGGPSVFLFPPKPKDTLMISRTPEVTCVVVDVSHEDPEVKFNWYVDGVEVHNAKTKPREEQYNSTYRVVSVLTVLHQDWLNGKEYKCKVSNKALPAPIEKTISKAKGQPREPRVYTLPPCRDELTKNQVSLTCLVKGFYPSDIAVEWESNGQPENNYKTTPPVLVSDGSFTLYSKLTVDKSRWQQGNVFSCSVMHEALHNHYTQKSLSLSPG
heavy: EVQLVESGGGLVKPGGSLRLSCAASGFTFSSYSMNWVRQAPGKGLEWVSSISSSSSYIYYADSVKGRFTISRDNAKNSLYLQMNSLRAEDTAVYYCARGAPIGAAAGWFDPWGQGTLVTVSSASTKGPSVFPLAPSSKSTSGGTAALGCLVKDYFPEPVTVSWNSGALTSGVHTFPAVLQSSGLYSLSSVVTVPSSSLGTQTYICNVNHKPSNTKVDKKVEPKSCDKTHTCPPCPAPELLGGPSVFLFPPKPKDTLMISRTPEVTCVVVDVSHEDPEVKFNWYVDGVEVHNAKTKPREEQYNSTYRVVSVLTVLHQDWLNGKEYKCKVSNKALPAPIEKTISKAKGQPREPQVCTLPPSRDELTENQVSLTCLVKGFYPSDIAVEWESNGQPENNYKTTPPVLDSDGSFFLYSWLTVDKSRWQQGNVFSCSVMHEALHNHYTQKSLSLSPG
light: DIQMTQSPSSVSASVGDRVTITCRASQGISSWLAWYQQKPGKAPKLLIYAASSLQSGVPSRFSGSGSGTDFTLTISSLQPEDFATYYCQQGVSFPRTFGGGTKVEIKRTVAAPSVFIFPPSDEQLKSGTASVVCLLNNFYPREAKVQWKVDNALQSGNSQESVTEQDSKDSTYSLSSTLTLSKADYEKHKVYACEVTHQGLSSPVTKSFNRGEC
notes: the condition stands under assay; also called AB0192 Lot AB0192-005
EC50 [1]: 0.43 nM | Kd (Human CLEC12A-His [2]): 1.66 nM | koff (Human CLEC12A-His [2]): 0.00128 s⁻¹ | kon (Human CLEC12A-His [2]): 768000 M⁻¹ s⁻¹ | Kd (mFc-hNKG2D [3]): 779 nM | koff (mFc-hNKG2D [3]): 0.121 s⁻¹ | kon (mFc-hNKG2D [3]): 156000 M⁻¹ s⁻¹ | Kd (Human CD16a V158 [4]): 173 nM | koff (Human CD16a V158 [4]): 0.0191 s⁻¹ | kon (Human CD16a V158 [4]): 110000 M⁻¹ s⁻¹ | Kd (Human CLEC12A-His [5]): 1.81 nM | koff (Human CLEC12A-His [5]): 0.0014 s⁻¹ | kon (Human CLEC12A-His [5]): 776000 M⁻¹ s⁻¹ | Kd (mFc-hNKG2D [6]): 602 nM | koff (mFc-hNKG2D [6]): 0.127 s⁻¹ | kon (mFc-hNKG2D [6]): 211000 M⁻¹ s⁻¹ | Kd (Human CD16a V158 [7]): 194 nM | koff (Human CD16a V158 [7]): 0.0201 s⁻¹ | kon (Human CD16a V158 [7]): 103000 M⁻¹ s⁻¹ | Kd (Human CLEC12A-His [8]): 1.72 nM and 1.99 nM and 1.71 nM | koff (Human CLEC12A-His [8]): 0.00136 s⁻¹ and 0.00151 s⁻¹ and 0.00134 s⁻¹ | kon (Human CLEC12A-His [8]): 787000 M⁻¹ s⁻¹ and 757000 M⁻¹ s⁻¹ and 785000 M⁻¹ s⁻¹
